Key:
human serum albumin [1] = target: T1, human serum albumin (human, UniProt P02768 25-609); experiment: SPR (Biacore), purified construct captured, HSA injected
T1 construct: also called HSA; HumanSA

mouse serum albumin = target: T2, mouse serum albumin (mouse, UniProt P07724 25-608); experiment: SPR (Biacore), purified construct captured, MSA injected
T2 construct: also called MSA; MurineSA

human serum albumin [2] = target: T1, human serum albumin; experiment: SPR (Biacore)

Row | koff (human serum albumin [1]) [s⁻¹] | koff (mouse serum albumin) [s⁻¹] | Kd (human serum albumin [2]) [nM] | koff (human serum albumin [2]) [s⁻¹] | kon (human serum albumin [2]) [M⁻¹ s⁻¹] | Binder
1 | 0.000206 | 0.000182 | – | – | – | FabB-didAb, -dAbL1 (CK-G4Sx2) & dAbH1 (CH1-G4Sx2) (bispecific antibody, also called FabB-645Fv (G4Sx2); FabB-645Fv (2xG4S)) heavy: ASTKGPSVFPLAPSSKSTSGGTAALGCLVKDYFPEPVTVSWNSGALTSGVHTFPAVLQSSGLYSLSSVVTVPSSSLGTQTYICNVNHKPSNTKVDKKVEPKSCGGGGSGGGGSEVQLLESGGGLVQPGGSLRLSCAVSGIDLSNYAINWVRQAPGKGLEWIGIIWASGTTFYATWAKGRFTISRDSTTVYLQMNSLRAEDTAVYYCARTVPGYSTAPYFDLWGQGTLVTVSS light: RTVAAPSVFIFPPSDEQLKSGTASVVCLLNNFYPREAKVQWKVDNALQSGNSQESVTEQDSKDSTYSLSSTLTLSKADYEKHKVYACEVTHQGLSSPVTKSFNRGECGGGGSGGGGSDIVMTQSPSSVSASVGDRVTITCQSSPSVWSNFLSWYQQKPGKAPKLLIYEASKLTSGVPSRFKGSGSGTDFTLTISSLQPEDFATYYCGGGYSSISDTTFGGGTKVEIK
2 | – | – | 51.6 | 0.0186 | 360000 | FabB-645dsFv (S3xG4S) with Fv heavy mutation T100aA (bispecific antibody, part only; not given: anti-OX40 Fab and linkers, V domains shown, not shown: another chain or arm of the molecule; large carriers; small tags and cut ends, Interchain disulfide between VH Cys44 and VL Cys100 (Kabat) of the dsFv) VH: EVQLLESGGGLVQPGGSLRLSCAVSGIDLSNYAINWVRQAPGKCLEWIGIIWASGTTFYATWAKGRFTISRDSTTVYLQMNSLRAEDTAVYYCARTVPGYSAAPYFDLWGQGTLVTVSS VL: DIVMTQSPSSVSASVGDRVTITCQSSPSVWSNFLSWYQQKPGKAPKLLIYEASKLTSGVPSRFKGSGSGTDFTLTISSLQPEDFATYYCGGGYSSISDTTFGCGTKVEIK

— patent US20200048372A1 (UCB, published 2020)
